This is an account of results in PMC4942575, “Plastid-nucleus communication involves calcium-modulated MAPK signalling”.

In data set [1] the target is MBP-ABI4 WT (Arabidopsis thaliana, UniProt A0MES8 1-328). Briefly: EMSA; poly(dI/dC); competed by excess unlabelled probe; 10 ul: 2 ug protein, 200 fmol biotin probe, 1 ul poly(dI/dC), 1x LightShift binding buffer, 5% glycerol; room temperature 20 min; 6% native PAGE; pH and salt not given. The conditions noted are these: protein: recombinant; tags: MBP (pETMALc-H); label: 3' biotin.
Chain of MBP-ABI4 WT (A0MES8 whole entry): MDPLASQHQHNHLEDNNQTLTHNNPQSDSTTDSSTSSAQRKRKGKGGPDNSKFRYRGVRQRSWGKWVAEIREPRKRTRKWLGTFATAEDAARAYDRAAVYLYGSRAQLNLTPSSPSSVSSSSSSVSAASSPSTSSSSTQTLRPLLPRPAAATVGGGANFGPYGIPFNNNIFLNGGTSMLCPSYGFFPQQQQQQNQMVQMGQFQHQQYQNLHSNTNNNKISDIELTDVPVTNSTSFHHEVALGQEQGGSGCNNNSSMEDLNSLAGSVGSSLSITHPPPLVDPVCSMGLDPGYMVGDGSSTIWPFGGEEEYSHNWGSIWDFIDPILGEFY

For data set [2], the target named is MBP-ABI4 AAA (Arabidopsis thaliana, UniProt A0MES8 1-328, T111A;S114A;S130A). Briefly: EMSA; poly(dI/dC); 10 ul: 2 ug protein, 200 fmol biotin probe, 1 ul poly(dI/dC), 1x LightShift binding buffer, 5% glycerol; room temperature 20 min; 6% native PAGE; pH and salt not given. The conditions noted are these: protein: recombinant; tags: MBP (pETMALc-H); label: 3' biotin. In general terms: Mobility shift assays separate free from complexed probe on a gel.
Chain of MBP-ABI4 AAA (A0MES8 whole entry T111A/S114A/S130A): as the sequence (A0MES8 whole entry) above, with T111A, S114A, S130A counted along it

B1: LHCB promoter probe (dsDNA)
DNA 1: GACTAGAGACTGCCACATAAGAATAGTAAAGTTA
DNA 2: TAACTTTACTATTCTTATGTGGCAGTCTCTAGTC
On to B1, for which the figures for the binding result in data set [1] and in data set [2] were “binds” and “no binding”, respectively.
